Results published in US20260152730A1.

Columns and labels:
[1] = biological target: domain 11 of the CI-M6P/IGF2R; assay: competitive ELISA on domain 11 of CI-M6P/IGF2R; cold ligand 1-500 nM against 8 nM biotinylated IGF2
[2] = biological target: insulin receptor isoform-A (IR-A); assay: competitive ELISA on IR-A; cold ligand 1-500 nM against 0.8 nM biotinylated insulin

IC50 [1]	times increased IC50 against Δ1-6.IGF2 peptide [1]	IC50 [2]	fold lower affinity than Δ1-6.IGF2 peptide [2]	Substance
61.7 nM	12.3 times	251 nM	150 fold	IDS.IGF2 (construct 2): IDS tagged C-terminally with aa 1, 8-67 of the mature human IGF2 (from UniProt P22304)
5.01 nM		1.61 nM		IGF2 peptide carrying a mutation of AA 1-6 (Δ1-6.IGF2 peptide) (from UniProt P01344) (ligand)
